According to paper PMC11574045, “A cofactor-induced repressive type of transcription factor condensation can be induced by synthetic peptides to suppress tumorigenesis” (The EMBO Journal, 2024):

Tested on: HEK293FT cells transfected with TF library
Experiment: Screening of TF condensates based on fluorescent puncta
Assay type: cell-based
Conditions: Figure 1B numerical data; TF library screen, one value per transcriptional factor
Summary of the method: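 Puncta scoring used automated confocal imaging of fifty random fields per well, after anti-Flag or anti-GAL4 immunofluorescence (Alexa 488) in PFA-fixed cells. HEK293FT cells carried TF library plasmids delivered with PEI (1.6 μg/ml DNA). At 60 h they were switched for 12 h to glucose-containing or glucose-free medium.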

| Molecule | Z score of condensed fraction |
| --- | --- |
| LIN28 (protein, UniProt Q9H9Z2 2-209, looked up) Protein lin-28 homolog A: GSVSNQQFAGGCAKAAEEAPEEAPEDAARAADEPQLLHGAGICKWFNVRMGFGFLSMTARAGVALDPPVDVFVHQSKLHMEGFRSLKEGEAVEFTFKKSAKGLESIRVTGPGGVFCIGSERRPKGKSMQKRRSKGDRCYNCGGLDHHAKECKLPPQPKKCHFCQSISHMVASCPLKAQQGPSAQGKPTYFREEEEEIHSPTLLPEAQN | -0.1683 |
| LMO1 (protein, UniProt P25800 1-156, looked up) Rhombotin-1: MMVLDKEDGVPMLSVQPKGKQKGCAGCNRKIKDRYLLKALDKYWHEDCLKCACCDCRLGEVGSTLYTKANLILCRRDYLRLFGTTGNCAACSKLIPAFEMVMRARDNVYHLDCFACQLCNQRFCVGDKFFLKNNMILCQMDYEEGQLNGTFESQVQ | 0.976 |
| LITAF (protein, UniProt Q99732 1-161, looked up) Lipopolysaccharide-induced …: MSVPGPYQAATGPSSAPSAPPSYEETVAVNSYYPTPPAPMPGPTTGLVTGPDGKGMNPPSYYTQPAPIPNNNPITVQTVYVQHPITFLDRPIQMCCPSCNKMIVSQLSYNAGALTWLSCGSLCLLGCIAGCCFIPFCVDALQDVDHYCPNCRALLGTYKRL | 0.004705 |
| LMX1B (protein, UniProt O60663 1-402, looked up) LIM homeobox transcription …: MDIATGPESLERCFPRGQTDCAKMLDGIKMEEHALRPGPATLGVLLGSDCPHPAVCEGCQRPISDRFLMRVNESSWHEECLQCAACQQALTTSCYFRDRKLYCKQDYQQLFAAKCSGCMEKIAPTEFVMRALECVYHLGCFCCCVCERQLRKGDEFVLKEGQLLCKGDYEKEKDLLSSVSPDESDSVKSEDEDGDMKPAKGQGSQSKGSGDDGKDPRRPKRPRTILTTQQRRAFKASFEVSSKPCRKVRETLAAETGLSVRVVQVWFQNQRAKMKKLARRHQQQQEQQNSQRLGQEVLSSRMEGMMASYTPLAPPQQQIVAMEQSPYGSSDPFQQGLTPPQMPGDHMNPYGNDSIFHDIDSDTSLTSLSDCFLGSSDVGSLQARVGNPIDRLYSMQSSYFAS | 0.1118 |
| LMCD1 (protein, UniProt Q9NZU5 1-365, looked up) LIM and cysteine-rich domains …: MAKVAKDLNPGVKKMSLGQLQSARGVACLGCKGTCSGFEPHSWRKICKSCKCSQEDHCLTSDLEDDRKIGRLLMDSKYSTLTARVKGGDGIRIYKRNRMIMTNPIATGKDPTFDTITYEWAPPGVTQKLGLQYMELIPKEKQPVTGTEGAFYRRRQLMHQLPIYDQDPSRCRGLLENELKLMEEFVKQYKSEALGVGEVALPGQGGLPKEEGKQQEKPEGAETTAATTNGSLSDPSKEVEYVCELCKGAAPPDSPVVYSDRAGYNKQWHPTCFVCAKCSEPLVDLIYFWKDGAPWCGRHYCESLRPRCSGCDEIIFAEDYQRVEDLAWHRKHFVCEGCEQLLSGRAYIVTKGQLLCPTCSKSKRS | 2.397 |
| LIN28B (protein, UniProt Q6ZN17 1-250, looked up) Protein lin-28 homolog B: MAEGGASKGGGEEPGKLPEPAEEESQVLRGTGHCKWFNVRMGFGFISMINREGSPLDIPVDVFVHQSKLFMEGFRSLKEGEPVEFTFKKSSKGLESIRVTGPGGSPCLGSERRPKGKTLQKRKPKGDRCYNCGGLDHHAKECSLPPQPKKCHYCQSIMHMVANCPHKNVAQPPASSQGRQEAESQPCTSTLPREVGGGHGCTSPPFPQEARAEISERSGRSPQEASSTKSSIAPEEQSKKGPSVQKRKKT | -0.9223 |
| LHX3 (protein, UniProt Q9UBR4 1-397, looked up) LIM/homeobox protein Lhx3: MLLETGLERDRARPGAAAVCTLGGTREIPLCAGCDQHILDRFILKALDRHWHSKCLKCSDCHTPLAERCFSRGESVYCKDDFFKRFGTKCAACQLGIPPTQVVRRAQDFVYHLHCFACVVCKRQLATGDEFYLMEDSRLVCKADYETAKQREAEATAKRPRTTITAKQLETLKSAYNTSPKPARHVREQLSSETGLDMRVVQVWFQNRRAKEKRLKKDAGRQRWGQYFRNMKRSRGGSKSDKDSVQEGQDSDAEVSFPDEPSLAEMGPANGLYGSLGEPTQALGRPSGALGNFSLEHGGLAGPEQYRELRPGSPYGVPPSPAAPQSLPGPQPLLSSLVYPDTSLGLVPSGAPGGPPPMRVLAGNGPSSDLSTGSSGGYPDFPASPASWLDEVDHAQF | -0.2379 |
